Data published in PMC6913698.

How the values were obtained:
[1] = biological target: T1, His-TF-TaGATA1 (Triticum aestivum (line CI12633), UniProt A0A5K7NI72 1-181); test: EMSA
T1 sequence: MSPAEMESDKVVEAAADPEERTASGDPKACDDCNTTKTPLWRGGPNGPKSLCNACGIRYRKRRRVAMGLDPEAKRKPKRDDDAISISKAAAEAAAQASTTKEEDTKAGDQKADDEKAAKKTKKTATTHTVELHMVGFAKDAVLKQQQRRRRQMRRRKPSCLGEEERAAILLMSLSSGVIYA

[2] = biological target: T1, His-TF-TaGATA1; test: competition

B1: GATA-containing probe (dsDNA)
DNA 1: AGTCGACGTGGATAATGGATCCTCGAGTGGATAATTCGATC
DNA 2: GATCGAATTATCCACTCGAGGATCCATTATCCACGTCGACT
[1]
  binding result: binds

B2: unlabelled GATA-containing competitor (dsDNA)
DNA 1: AGTCGACGTGGATAATGGATCCTCGAGTGGATAATTCGATC
DNA 2: GATCGAATTATCCACTCGAGGATCCATTATCCACGTCGACT
[2]
  binding result: binds
